Laboratory results: patent US20150344570A1 (published 2015)

T1: FcγRIIb extracellular domain with C-terminal His tag (human, UniProt P31994 43-217)
T1 construct: extracellular domain; also called 2b; FcgRIIb; not shown: His tag at the C terminus
T1 sequence (looked up): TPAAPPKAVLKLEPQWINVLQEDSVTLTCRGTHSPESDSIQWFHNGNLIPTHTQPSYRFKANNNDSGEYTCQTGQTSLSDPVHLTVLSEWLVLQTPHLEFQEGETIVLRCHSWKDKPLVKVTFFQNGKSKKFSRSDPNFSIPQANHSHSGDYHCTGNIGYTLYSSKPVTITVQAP


Key:
[1] = molecular target: T1, FcγRIIb extracellular domain with …; assay: SPR (Biacore), relative to GpH7-A5/GpH7-B3/GpL16-k0 = 100
[2] = molecular target: T2, FcγRIIIa extracellular domain with C-terminal His tag (human, UniProt P08637 17-208); assay: as above
T2 construct: extracellular domain; also called 3a; FcgRIIIa; not shown: His tag at the C terminus
T2 sequence (P08637 17-208): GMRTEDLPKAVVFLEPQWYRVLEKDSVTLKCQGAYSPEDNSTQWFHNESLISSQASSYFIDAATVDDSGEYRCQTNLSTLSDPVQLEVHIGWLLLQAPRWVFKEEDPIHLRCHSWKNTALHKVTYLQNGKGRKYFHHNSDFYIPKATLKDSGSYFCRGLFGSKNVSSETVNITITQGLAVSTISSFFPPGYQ

He/Con_2b [1]	He/Con_3a [2]	Binder
192 % (control = 100)	25.2 % (control = 100)	GpH7-A5/GpH7-B3 variant S267_07I/GpL16-k0 (antibody, human IgG1, kappa, IgG1, anti-glypican-3; also called He Ab) heavy 1: not shown heavy 2: not shown light: DIVMTQSPLSLPVTPGEPASISCQASESLVHSNRNTYLHWYLQKPGQSPQLLIYKVSNRFSGVPDRFSGSGSGTDFTLKISRVEAEDVGVYYCSQNTHVPPTFGQGTKVEIERTVAAPSVFIFPPSDEQLKSGTASVVCLLNNFYPREAKVQWKVDNALQSGNSQESVTEQDSKDSTYSLSSTLTLSKADYEKHKVYACEVTHQGLSSPVTKSFNRGEC
109 % (control = 100)	19.5 % (control = 100)	GpH7-A5/GpH7-B3 variant S267_08L/GpL16-k0 (antibody, human IgG1, kappa, IgG1, anti-glypican-3; also called He Ab) heavy 1: not shown heavy 2: not shown light: DIVMTQSPLSLPVTPGEPASISCQASESLVHSNRNTYLHWYLQKPGQSPQLLIYKVSNRFSGVPDRFSGSGSGTDFTLKISRVEAEDVGVYYCSQNTHVPPTFGQGTKVEIERTVAAPSVFIFPPSDEQLKSGTASVVCLLNNFYPREAKVQWKVDNALQSGNSQESVTEQDSKDSTYSLSSTLTLSKADYEKHKVYACEVTHQGLSSPVTKSFNRGEC
379 % (control = 100)	91.9 % (control = 100)	GpH7-A5/GpH7-B3 variant S267_10E/GpL16-k0 (antibody, human IgG1, kappa, IgG1, anti-glypican-3; also called He Ab) heavy 1: not shown heavy 2: not shown light: DIVMTQSPLSLPVTPGEPASISCQASESLVHSNRNTYLHWYLQKPGQSPQLLIYKVSNRFSGVPDRFSGSGSGTDFTLKISRVEAEDVGVYYCSQNTHVPPTFGQGTKVEIERTVAAPSVFIFPPSDEQLKSGTASVVCLLNNFYPREAKVQWKVDNALQSGNSQESVTEQDSKDSTYSLSSTLTLSKADYEKHKVYACEVTHQGLSSPVTKSFNRGEC
104 % (control = 100)	45.6 % (control = 100)	GpH7-A5/GpH7-B3 variant S267_14T/GpL16-k0 (antibody, human IgG1, kappa, IgG1, anti-glypican-3; also called He Ab) heavy 1: not shown heavy 2: not shown light: DIVMTQSPLSLPVTPGEPASISCQASESLVHSNRNTYLHWYLQKPGQSPQLLIYKVSNRFSGVPDRFSGSGSGTDFTLKISRVEAEDVGVYYCSQNTHVPPTFGQGTKVEIERTVAAPSVFIFPPSDEQLKSGTASVVCLLNNFYPREAKVQWKVDNALQSGNSQESVTEQDSKDSTYSLSSTLTLSKADYEKHKVYACEVTHQGLSSPVTKSFNRGEC
218 % (control = 100)	65 % (control = 100)	GpH7-A5/GpH7-B3 variant S267_19Q/GpL16-k0 (antibody, human IgG1, kappa, IgG1, anti-glypican-3; also called He Ab) heavy 1: not shown heavy 2: not shown light: DIVMTQSPLSLPVTPGEPASISCQASESLVHSNRNTYLHWYLQKPGQSPQLLIYKVSNRFSGVPDRFSGSGSGTDFTLKISRVEAEDVGVYYCSQNTHVPPTFGQGTKVEIERTVAAPSVFIFPPSDEQLKSGTASVVCLLNNFYPREAKVQWKVDNALQSGNSQESVTEQDSKDSTYSLSSTLTLSKADYEKHKVYACEVTHQGLSSPVTKSFNRGEC
102 % (control = 100)	92.6 % (control = 100)	GpH7-A5/GpH7-B3 variant S298_06M/GpL16-k0 (antibody, human IgG1, kappa, IgG1, anti-glypican-3; also called He Ab) heavy 1: not shown heavy 2: not shown light: DIVMTQSPLSLPVTPGEPASISCQASESLVHSNRNTYLHWYLQKPGQSPQLLIYKVSNRFSGVPDRFSGSGSGTDFTLKISRVEAEDVGVYYCSQNTHVPPTFGQGTKVEIERTVAAPSVFIFPPSDEQLKSGTASVVCLLNNFYPREAKVQWKVDNALQSGNSQESVTEQDSKDSTYSLSSTLTLSKADYEKHKVYACEVTHQGLSSPVTKSFNRGEC
108 % (control = 100)	73.5 % (control = 100)	GpH7-A5/GpH7-B3 variant S298_08L/GpL16-k0 (antibody, human IgG1, kappa, IgG1, anti-glypican-3; also called He Ab) heavy 1: not shown heavy 2: not shown light: DIVMTQSPLSLPVTPGEPASISCQASESLVHSNRNTYLHWYLQKPGQSPQLLIYKVSNRFSGVPDRFSGSGSGTDFTLKISRVEAEDVGVYYCSQNTHVPPTFGQGTKVEIERTVAAPSVFIFPPSDEQLKSGTASVVCLLNNFYPREAKVQWKVDNALQSGNSQESVTEQDSKDSTYSLSSTLTLSKADYEKHKVYACEVTHQGLSSPVTKSFNRGEC
251 % (control = 100)	85.8 % (control = 100)	GpH7-A5/GpH7-B3 variant V266_06M/GpL16-k0 (antibody, human IgG1, kappa, IgG1, anti-glypican-3; also called He Ab) heavy 1: not shown heavy 2: not shown light: DIVMTQSPLSLPVTPGEPASISCQASESLVHSNRNTYLHWYLQKPGQSPQLLIYKVSNRFSGVPDRFSGSGSGTDFTLKISRVEAEDVGVYYCSQNTHVPPTFGQGTKVEIERTVAAPSVFIFPPSDEQLKSGTASVVCLLNNFYPREAKVQWKVDNALQSGNSQESVTEQDSKDSTYSLSSTLTLSKADYEKHKVYACEVTHQGLSSPVTKSFNRGEC
108 % (control = 100)	96.3 % (control = 100)	GpH7-A5/GpH7-B3 variant Y300_19Q/GpL16-k0 (antibody, human IgG1, kappa, IgG1, anti-glypican-3; also called He Ab) heavy 1: not shown heavy 2: not shown light: DIVMTQSPLSLPVTPGEPASISCQASESLVHSNRNTYLHWYLQKPGQSPQLLIYKVSNRFSGVPDRFSGSGSGTDFTLKISRVEAEDVGVYYCSQNTHVPPTFGQGTKVEIERTVAAPSVFIFPPSDEQLKSGTASVVCLLNNFYPREAKVQWKVDNALQSGNSQESVTEQDSKDSTYSLSSTLTLSKADYEKHKVYACEVTHQGLSSPVTKSFNRGEC
